Results on three molecules are retold here after patent US20030134310A1.

Data set [1] concerns the target control mRNA-protein fusion molecule containing an optimized v-abl phosphorylation site (…), phosphorylated by v-abl. Kind of data set: immunoprecipitation of the mRNA-peptide fusion with 4G10 after the v-abl kinase reaction.
Data set [2] has as its target TC26 fragment of Shg (clone obtained in round five of the selection).
Data set [3] deals with control peptides (r-series) containing the same amino acids as the test peptides, but in a scrambled order.

For “4G10 anti-phosphotyrosine antibody (Upstate Biotechnology)”, the percent of fusion molecules immunoprecipitated in data set [1] is 3%.

B1: ZAP 70 kinase (protein)
chain: MPDPAAHLPFFYGSISRAEAEEHLKLAGMADGLFLLRQCLRSLGGYVLSLVHDVRFHHFPIERQLNGTYAIAGGKAHCGPAELCEFYSRDPDGLPCNLRKPCNRPSGLEPQPGVFDCLRDAMVRDYVRQTWKLEGEALEQAIISQAPQVEKLIATTAHERMPWYHSSLTREEAERKLYSGAQTDGKFLLRPRKEQGTYALSLIYGKTVYHYLISQDKAGKYCIPEGTKFDTLWQLVEYLKLKADGLIYCLKEACPNSSASNASGAAAPTLPAHPSTLTHPQRRIDTLNSDGYTPEPARITSPDKPRPMPMDTSVYESPYSDPEELKDKKLFLKRDNLLIADIELGCGNFGSVRQGVYRMRKKQIDVAIKVLKQGTEKADTEEMMREAQIMHQLDNPYIVRLIGVCQAEALMLVMEMAGGGPLHKFLVGKREEIPVSNVAELLHQVSMGMKYLEEKNFVHRDLAARNVLLVNRHYAKISDFGLSKALGADDSYYTARSAGKWPLKWYAPECINFRKFSSRSDVWSYGVTMWEALSYGQKPYKKMKGPEVMAFIEQGKRMECPPECPPELYALMSDCWIYKWEDRPDFLTVEQRMRACYYSLASKVEGPPGSTQKAEAACA
Regarding B1, in the data set with full-length Shg protein, the phosphorylation in vitro entry is “the full-length Shg protein was phosphorylated by both v-abl and ZAP 70 in vitro”.

B2: recombinant v-abl tyrosine kinase (New England Biolabs) (protein)
chain: YITPVNSLEKHSWYHGPVSRNAAEYLLSSGINGSFLVRESESSPGQRSISLRYEGRVYHYRINTASDGKLYVSSESRFNTLAELVHHHSTVADGLITTLHYPAPKRNKPTIYGVSPNYDKWEMERTDITMKHKLGGGQYGEVYEGVWKKYSLTVAVKTLKEDTMEVEEFLKEAAVMKEIKHPNLVQLLGVCTREPPFYIITEFMTYGNLLDYLRECNRQEVSAVVLLYMATQISSAMEYLEKKNFIHRDLAARNCLVGENHLVKVADFGLSRLMTGDTYTAHAGAKFPIKWTAPESLAYNKFSIKSDVWAFGVLLWEIATYGMSPYPGIDLSQVYELLEKDYRMERPEGCPEKVYELMRACWQWNPSDRPSFAEIHQAFETMFQESSISDEVEKELGKRG
Take B2: in data set [2], the “phosphorylation of mutagenized TC26 peptides with [γ-32P]ATP” value was “only the first tyrosine is a substrate for v-abl”. Further, the “v-abl kinase activity on 5 µM substrate EAIYAAPFAKKK” value in data set [3] is given as “did not have a significant effect on v-abl kinase activity”. In the data set with full-length Shg protein, the phosphorylation in vitro entry was “the full-length Shg protein was phosphorylated by both v-abl and ZAP 70 in vitro”.
